Data on 1 variant can be found in FireProtDB (doi:10.1021/bi00015a036).

First the molecules themselves.
B1: Barstar, P11540 (parent)
chain: MKKAVINGEQIRSISDLHQTLKKELALPEYYGENLDALWDCLTGWVEYPLVLEWRQFEQSKQLTENGAESVLQVFREAKAEGCDITIILS

In one data set the parent is B1. As to conditions: Bacillus amyloliquefaciens; pH 7; Thermal; DSC; PIPES 50 mM; reversible: yes (~80%); structure 1BTA; whole UniProt chain shown.
In general, Tm refers to the temperature at which the thermal transition is half complete. For C41A C83A, the Tm is 74 °C and the “unfolding enthalpy (calorimetric)” value was 63.4 kcal/mol.

The data set is the same for the next values; noted with them: Bacillus amyloliquefaciens; pH 10; Thermal; DSC; CAPS 50 mM; reversible: yes (~80%); structure 1BTA; whole UniProt chain shown.
Take C41A C83A: the Tm came to 68.6 °C and the “unfolding enthalpy (calorimetric)” value amounted to 58.6 kcal/mol.

The data set is the same for the next values; noted with them: Bacillus amyloliquefaciens; pH 10.3; Thermal; DSC; CAPS 50 mM; reversible: yes (~80%); structure 1BTA; whole UniProt chain shown.
On to C41A C83A, for which the Tm worked out at 67 °C and the “unfolding enthalpy (calorimetric)” value was 57.4 kcal/mol.

Staying with this data set, now noted: Bacillus amyloliquefaciens; pH 10.5; Thermal; DSC; CAPS 50 mM; reversible: yes (~80%); structure 1BTA; whole UniProt chain shown.
Regarding C41A C83A, the melting temperature (Tm) amounted to 65.7 °C and the “unfolding enthalpy (calorimetric)” value worked out at 56.2 kcal/mol.
